Test results from patent US20240117334A1 (VERTEX PHARMACEUTICALS, published 2024).
Several values for one entry are separate records, joined by “and”; a condition that tells them apart may be missing. Equal entries are not always repeated.

Tests used:
[1] = molecular target: T1, Plasma antichymotrypsin (ACT) (UniProt P01011 24-423); assay: serpin inhibition of the protease
T1 construct: also called plasma ACT
T1 sequence (looked up): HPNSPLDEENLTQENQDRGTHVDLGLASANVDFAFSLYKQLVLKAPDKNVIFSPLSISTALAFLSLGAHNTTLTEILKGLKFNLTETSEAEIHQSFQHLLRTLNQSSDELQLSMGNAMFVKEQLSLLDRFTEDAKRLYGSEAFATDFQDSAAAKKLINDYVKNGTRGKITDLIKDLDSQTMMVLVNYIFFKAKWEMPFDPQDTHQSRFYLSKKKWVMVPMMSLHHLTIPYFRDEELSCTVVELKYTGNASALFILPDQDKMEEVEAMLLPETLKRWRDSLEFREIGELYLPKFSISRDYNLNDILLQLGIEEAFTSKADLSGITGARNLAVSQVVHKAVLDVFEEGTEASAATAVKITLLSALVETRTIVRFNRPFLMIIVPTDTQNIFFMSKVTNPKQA

Human Factor B = Human Factor B (human, UniProt P00751 26-764); assay: cell-based or functional assay
Sequence of Human Factor B (P00751 26-764 limits assumed): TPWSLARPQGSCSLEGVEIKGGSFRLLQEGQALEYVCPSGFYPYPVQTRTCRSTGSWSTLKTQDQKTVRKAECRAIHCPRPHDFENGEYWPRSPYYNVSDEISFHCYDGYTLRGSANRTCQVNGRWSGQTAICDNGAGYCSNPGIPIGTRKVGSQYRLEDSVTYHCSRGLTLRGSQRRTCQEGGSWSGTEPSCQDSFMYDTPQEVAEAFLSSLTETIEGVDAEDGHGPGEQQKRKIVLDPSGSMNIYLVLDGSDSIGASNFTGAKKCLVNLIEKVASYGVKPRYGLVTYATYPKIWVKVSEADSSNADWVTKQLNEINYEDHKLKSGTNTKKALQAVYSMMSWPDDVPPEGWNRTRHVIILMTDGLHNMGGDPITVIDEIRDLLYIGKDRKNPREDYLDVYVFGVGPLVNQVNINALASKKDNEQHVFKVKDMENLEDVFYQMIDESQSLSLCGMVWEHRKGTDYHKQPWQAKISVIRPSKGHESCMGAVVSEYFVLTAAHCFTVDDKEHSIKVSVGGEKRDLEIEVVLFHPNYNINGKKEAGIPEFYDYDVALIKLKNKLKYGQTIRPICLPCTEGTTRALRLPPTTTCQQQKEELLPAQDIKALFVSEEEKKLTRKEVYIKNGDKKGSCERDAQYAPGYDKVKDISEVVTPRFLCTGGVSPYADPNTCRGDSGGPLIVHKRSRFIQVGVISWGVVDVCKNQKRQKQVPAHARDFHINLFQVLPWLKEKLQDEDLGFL

B1: chymase C22S/K40L/F41K/L99N/F173Y/S218L/A226R (enzyme)
chain: IIGGTESKPHSRPYMAYLEIVTSNGPSLKCGGFLIRRNFVLTAAHCAGRSITVTLGAHNITEEEDTWQKLEVIKQFRHPKYNTSTNHHDIMLLKLKEKASLTLAVGTLPFPSQFNFVPPGRMCRVAGWGRTGVLKPGSDTLQEVKLRLMDPQACSHYRDFDHNLQLCVGNPRKTKSAFKGDSGGPLLCAGVAQGIVSYGRLDAKPPRVFTRISHYRPWINQILQAN
[1]
  kapp: 197 M⁻¹ s⁻¹
Human Factor B
  fB Cleavage, 80% plasma EC50: 14 µM

B2: chymase C22S/L99H/F173L/K192R/Y215H/R217T/S218V/A226R (enzyme)
chain: IIGGTESKPHSRPYMAYLEIVTSNGPSKFCGGFLIRRNFVLTAAHCAGRSITVTLGAHNITEEEDTWQKLEVIKQFRHPKYNTSTHHHDIMLLKLKEKASLTLAVGTLPFPSQFNFVPPGRMCRVAGWGRTGVLKPGSDTLQEVKLRLMDPQACSHLRDFDHNLQLCVGNPRKTKSAFRGDSGGPLLCAGVAQGIVSHGTVDAKPPRVFTRISHYRPWINQILQAN
Human Factor B
  fB Cleavage EC50: 7.77 µM and 2.74 µM

B3: chymase C22S/F41V/L99W/G151L/F173K/R217S/A226R (enzyme)
chain: IIGGTESKPHSRPYMAYLEIVTSNGPSKVCGGFLIRRNFVLTAAHCAGRSITVTLGAHNITEEEDTWQKLEVIKQFRHPKYNTSTWHHDIMLLKLKEKASLTLAVGTLPFPSQFNFVPPGRMCRVAGWGRTGVLKPLSDTLQEVKLRLMDPQACSHKRDFDHNLQLCVGNPRKTKSAFKGDSGGPLLCAGVAQGIVSYGSSDAKPPRVFTRISHYRPWINQILQAN
Human Factor B
  fB Cleavage EC50: 1.94 µM

B4: chymase C22S/F41V/L99H/G151R/F173L/Y215R/R217T/A226R (enzyme)
chain: IIGGTESKPHSRPYMAYLEIVTSNGPSKVCGGFLIRRNFVLTAAHCAGRSITVTLGAHNITEEEDTWQKLEVIKQFRHPKYNTSTHHHDIMLLKLKEKASLTLAVGTLPFPSQFNFVPPGRMCRVAGWGRTGVLKPRSDTLQEVKLRLMDPQACSHLRDFDHNLQLCVGNPRKTKSAFKGDSGGPLLCAGVAQGIVSRGTSDAKPPRVFTRISHYRPWINQILQAN
Human Factor B
  fB Cleavage EC50: 8.06 µM

B5: chymase C22S/F41R/L99H/G151T/F173Y/Y215K/R217M/A226R (enzyme)
chain: IIGGTESKPHSRPYMAYLEIVTSNGPSKRCGGFLIRRNFVLTAAHCAGRSITVTLGAHNITEEEDTWQKLEVIKQFRHPKYNTSTHHHDIMLLKLKEKASLTLAVGTLPFPSQFNFVPPGRMCRVAGWGRTGVLKPTSDTLQEVKLRLMDPQACSHYRDFDHNLQLCVGNPRKTKSAFKGDSGGPLLCAGVAQGIVSKGMSDAKPPRVFTRISHYRPWINQILQAN
Human Factor B
  fB Cleavage EC50: 1.69 µM

B6: chymase C22S/L99H/F173I/K192R/Y215K/R217T/S218I/A226R (enzyme)
chain: IIGGTESKPHSRPYMAYLEIVTSNGPSKFCGGFLIRRNFVLTAAHCAGRSITVTLGAHNITEEEDTWQKLEVIKQFRHPKYNTSTHHHDIMLLKLKEKASLTLAVGTLPFPSQFNFVPPGRMCRVAGWGRTGVLKPGSDTLQEVKLRLMDPQACSHIRDFDHNLQLCVGNPRKTKSAFRGDSGGPLLCAGVAQGIVSKGTIDAKPPRVFTRISHYRPWINQILQAN
Human Factor B
  fB Cleavage EC50: 5.62 µM

B7: chymase C22S/L99H/F173Y/K192R/S218L/A226R (enzyme)
chain: IIGGTESKPHSRPYMAYLEIVTSNGPSKFCGGFLIRRNFVLTAAHCAGRSITVTLGAHNITEEEDTWQKLEVIKQFRHPKYNTSTHHHDIMLLKLKEKASLTLAVGTLPFPSQFNFVPPGRMCRVAGWGRTGVLKPGSDTLQEVKLRLMDPQACSHYRDFDHNLQLCVGNPRKTKSAFRGDSGGPLLCAGVAQGIVSYGRLDAKPPRVFTRISHYRPWINQILQAN
Human Factor B
  fB Cleavage EC50: 1.15 µM

B8: chymase C22S/L99Y/F173Y/K192R/S218L/A226R (enzyme)
chain: IIGGTESKPHSRPYMAYLEIVTSNGPSKFCGGFLIRRNFVLTAAHCAGRSITVTLGAHNITEEEDTWQKLEVIKQFRHPKYNTSTYHHDIMLLKLKEKASLTLAVGTLPFPSQFNFVPPGRMCRVAGWGRTGVLKPGSDTLQEVKLRLMDPQACSHYRDFDHNLQLCVGNPRKTKSAFRGDSGGPLLCAGVAQGIVSYGRLDAKPPRVFTRISHYRPWINQILQAN
Human Factor B
  fB Cleavage EC50: 1.02 µM

B9: chymase C22S/F41R/L99G/G151T/F173Y/Y215R/R217M/A226R (enzyme)
chain: IIGGTESKPHSRPYMAYLEIVTSNGPSKRCGGFLIRRNFVLTAAHCAGRSITVTLGAHNITEEEDTWQKLEVIKQFRHPKYNTSTGHHDIMLLKLKEKASLTLAVGTLPFPSQFNFVPPGRMCRVAGWGRTGVLKPTSDTLQEVKLRLMDPQACSHYRDFDHNLQLCVGNPRKTKSAFKGDSGGPLLCAGVAQGIVSRGMSDAKPPRVFTRISHYRPWINQILQAN
Human Factor B
  fB Cleavage EC50: 4.33 µM

B10: chymase C22S/F41R/L99Y/G151T/F173K/R217S/A226R (enzyme)
chain: IIGGTESKPHSRPYMAYLEIVTSNGPSKRCGGFLIRRNFVLTAAHCAGRSITVTLGAHNITEEEDTWQKLEVIKQFRHPKYNTSTYHHDIMLLKLKEKASLTLAVGTLPFPSQFNFVPPGRMCRVAGWGRTGVLKPTSDTLQEVKLRLMDPQACSHKRDFDHNLQLCVGNPRKTKSAFKGDSGGPLLCAGVAQGIVSYGSSDAKPPRVFTRISHYRPWINQILQAN
Human Factor B
  fB Cleavage EC50: 3.45 µM

B11: chymase F41V/L99H/G151V/F173Y/Y215K/R217G/A226R (enzyme)
chain: IIGGTECKPHSRPYMAYLEIVTSNGPSKVCGGFLIRRNFVLTAAHCAGRSITVTLGAHNITEEEDTWQKLEVIKQFRHPKYNTSTHHHDIMLLKLKEKASLTLAVGTLPFPSQFNFVPPGRMCRVAGWGRTGVLKPVSDTLQEVKLRLMDPQACSHYRDFDHNLQLCVGNPRKTKSAFKGDSGGPLLCAGVAQGIVSKGGSDAKPPRVFTRISHYRPWINQILQAN
Human Factor B
  fB Cleavage EC50: 7.77 µM

B12: chymase C22S/F41V/L99F/G151R/F173K/R217S/A226R (enzyme)
chain: IIGGTESKPHSRPYMAYLEIVTSNGPSKVCGGFLIRRNFVLTAAHCAGRSITVTLGAHNITEEEDTWQKLEVIKQFRHPKYNTSTFHHDIMLLKLKEKASLTLAVGTLPFPSQFNFVPPGRMCRVAGWGRTGVLKPRSDTLQEVKLRLMDPQACSHKRDFDHNLQLCVGNPRKTKSAFKGDSGGPLLCAGVAQGIVSYGSSDAKPPRVFTRISHYRPWINQILQAN
Human Factor B
  fB Cleavage EC50: 3.65 µM

B13: chymase C22S/K192R/A226R (enzyme)
chain: IIGGTESKPHSRPYMAYLEIVTSNGPSKFCGGFLIRRNFVLTAAHCAGRSITVTLGAHNITEEEDTWQKLEVIKQFRHPKYNTSTLHHDIMLLKLKEKASLTLAVGTLPFPSQFNFVPPGRMCRVAGWGRTGVLKPGSDTLQEVKLRLMDPQACSHFRDFDHNLQLCVGNPRKTKSAFRGDSGGPLLCAGVAQGIVSYGRSDAKPPRVFTRISHYRPWINQILQAN
Human Factor B
  fB Cleavage EC50: 6.37 µM

B14: chymase C22S/F41I/L99W/G151L/F173K/R217S/A226R (enzyme)
chain: IIGGTESKPHSRPYMAYLEIVTSNGPSKICGGFLIRRNFVLTAAHCAGRSITVTLGAHNITEEEDTWQKLEVIKQFRHPKYNTSTWHHDIMLLKLKEKASLTLAVGTLPFPSQFNFVPPGRMCRVAGWGRTGVLKPLSDTLQEVKLRLMDPQACSHKRDFDHNLQLCVGNPRKTKSAFKGDSGGPLLCAGVAQGIVSYGSSDAKPPRVFTRISHYRPWINQILQAN
Human Factor B
  fB Cleavage EC50: 1.74 µM

B15: chymase C22S/A226R (enzyme)
chain: IIGGTESKPHSRPYMAYLEIVTSNGPSKFCGGFLIRRNFVLTAAHCAGRSITVTLGAHNITEEEDTWQKLEVIKQFRHPKYNTSTLHHDIMLLKLKEKASLTLAVGTLPFPSQFNFVPPGRMCRVAGWGRTGVLKPGSDTLQEVKLRLMDPQACSHFRDFDHNLQLCVGNPRKTKSAFKGDSGGPLLCAGVAQGIVSYGRSDAKPPRVFTRISHYRPWINQILQAN
[1]
  kapp: 1040 M⁻¹ s⁻¹
Human Factor B
  fB Cleavage EC50: 5.21 µM

B16: chymase C22S/P38Q/V138I/V183I/L199V/A226R/F228V (enzyme)
chain: IIGGTESKPHSRPYMAYLEIVTSNGQSKFCGGFLIRRNFVLTAAHCAGRSITVTLGAHNITEEEDTWQKLEVIKQFRHPKYNTSTLHHDIMLLKLKEKASLTLAVGTLPFPSQFNFVPPGRMCRIAGWGRTGVLKPGSDTLQEVKLRLMDPQACSHFRDFDHNLQLCIGNPRKTKSAFKGDSGGPVLCAGVAQGIVSYGRSDAKPPRVVTRISHYRPWINQILQAN
[1]
  kapp: 269 M⁻¹ s⁻¹

B17: chymase C22S/K40L/F41H/L99N/F173Y/D175N/S218L/A226R (enzyme)
chain: IIGGTESKPHSRPYMAYLEIVTSNGPSLHCGGFLIRRNFVLTAAHCAGRSITVTLGAHNITEEEDTWQKLEVIKQFRHPKYNTSTNHHDIMLLKLKEKASLTLAVGTLPFPSQFNFVPPGRMCRVAGWGRTGVLKPGSDTLQEVKLRLMDPQACSHYRNFDHNLQLCVGNPRKTKSAFKGDSGGPLLCAGVAQGIVSYGRLDAKPPRVFTRISHYRPWINQILQAN
notes: also called MS No. 16
[1]
  kapp: 40 M⁻¹ s⁻¹
Human Factor B
  fB Cleavage EC50: 0.139 µM
  fB Cleavage, 80% plasma EC50: 5.07 µM

B18: chymase C22S/A190S/A226R (enzyme)
chain: IIGGTESKPHSRPYMAYLEIVTSNGPSKFCGGFLIRRNFVLTAAHCAGRSITVTLGAHNITEEEDTWQKLEVIKQFRHPKYNTSTLHHDIMLLKLKEKASLTLAVGTLPFPSQFNFVPPGRMCRVAGWGRTGVLKPGSDTLQEVKLRLMDPQACSHFRDFDHNLQLCVGNPRKTKSSFKGDSGGPLLCAGVAQGIVSYGRSDAKPPRVFTRISHYRPWINQILQAN
[1]
  kapp: 1600 M⁻¹ s⁻¹
Human Factor B
  fB Cleavage EC50: 0.407 µM

B19: chymase C22S (enzyme)
chain: IIGGTESKPHSRPYMAYLEIVTSNGPSKFCGGFLIRRNFVLTAAHCAGRSITVTLGAHNITEEEDTWQKLEVIKQFRHPKYNTSTLHHDIMLLKLKEKASLTLAVGTLPFPSQFNFVPPGRMCRVAGWGRTGVLKPGSDTLQEVKLRLMDPQACSHFRDFDHNLQLCVGNPRKTKSAFKGDSGGPLLCAGVAQGIVSYGRSDAKPPAVFTRISHYRPWINQILQAN
notes: For all chymase variants: mutation names are in chymotrypsin numbering
[1]
  kapp: 31200 M⁻¹ s⁻¹
Human Factor B
  fB Cleavage EC50: 0.265 µM
  fB Cleavage, 64% A2M-depl plasma EC50: 1.52 µM
  fB Cleavage, 64% plasma EC50: 7.88 µM
  fB Cleavage, 80% plasma EC50: 10.2 µM

B20: chymase C22S/F173Y/D175N/A226R (enzyme)
chain: IIGGTESKPHSRPYMAYLEIVTSNGPSKFCGGFLIRRNFVLTAAHCAGRSITVTLGAHNITEEEDTWQKLEVIKQFRHPKYNTSTLHHDIMLLKLKEKASLTLAVGTLPFPSQFNFVPPGRMCRVAGWGRTGVLKPGSDTLQEVKLRLMDPQACSHYRNFDHNLQLCVGNPRKTKSAFKGDSGGPLLCAGVAQGIVSYGRSDAKPPRVFTRISHYRPWINQILQAN
notes: also called MS No. 18
[1]
  kapp: 428 M⁻¹ s⁻¹
Human Factor B
  fB Cleavage, 64% A2M-depl plasma EC50: 1.65 µM
  fB Cleavage, 80% plasma EC50: 11.2 µM
